Experimental data as given in patent US20230048960A1 (University of Washington, published 2023).
Square brackets hold non-standard residues; d marks the D form.

T1: islet amyloid polypeptide (IAPP) (UniProt P10997 34-70, limits assumed)
T1 peptide (looked up): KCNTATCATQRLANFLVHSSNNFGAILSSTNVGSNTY


Assays:
Assay in all cases: cell-based or functional assay
[1] = molecular target: T2, Aβ42 (UniProt P05067 672-713)
[2] = molecular target: T2, Aβ42; remark: listed apart in the source
[3] = molecular target: T1, islet amyloid polypeptide (IAPP)

T2 sequence (P05067 672-713 limits assumed): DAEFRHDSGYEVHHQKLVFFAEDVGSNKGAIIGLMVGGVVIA

Binder | % inhibition of fibril formation (ThT), AP:Aβ42 1:1 [1] | % inhibition of fibril formation (ThT), AP:Aβ42 1:10 [1] | % inhibition of fibril formation (ThT), AP:Aβ42 1:100 [1] | % Inhibition 1:10 (AP peptide:Abeta42), ThT assay [2] | % inhibition of IAPP amyloid formation, Ratio AP:IAPP 1:1 [3] | % inhibition of IAPP amyloid formation, Ratio AP:IAPP 4:1 [3] | % inhibition of IAPP amyloid formation, Ratio AP:IAPP 10:1 [3]
Ac-RGE[dM]N[dL]S[dW]M[dN][dE][dY][dY]GW[dT]M[dN]M[dK]CGR-NH2 (also: homodimer: Cys21 disulfide-bonded to Cys21 of other copy) [AP525d] | 99.7% | 98.3% | 89.2% | – | – | – | –
Ac-[dR]G[dE]M[dN]L[dS]W[dM][dN][dE][dY][dY]G[dW]T[dM]N[dM]K[dC]G[dR]-NH2 (also: homodimer linked by MalPEG1, linker at 21 via MalPEG1, other end not in the chain) [AP527d (MalPEG1)] | – | – | – | 75% | – | – | –
Ac-[dR]G[dE]M[dN]L[dS]W[dM][dN][dE][dY][dY]G[dW]T[dM]N[dM]K[dC]G[dR]-NH2 (also: homodimer linked by BMOE, linker at 21 via BMOE, other end not in the chain) [AP527d (BMOE)] | – | – | – | 80% | – | – | –

The next lines start with the values.

% inhibition of fibril formation (ThT), AP:Aβ42 1:1 [1] | % inhibition of fibril formation (ThT), AP:Aβ42 1:10 [1] | % inhibition of fibril formation (ThT), AP:Aβ42 1:100 [1] | % Inhibition 1:10 (AP peptide:Abeta42), ThT assay [2] | % inhibition of IAPP amyloid formation, Ratio AP:IAPP 1:1 [3] | % inhibition of IAPP amyloid formation, Ratio AP:IAPP 4:1 [3] | % inhibition of IAPP amyloid formation, Ratio AP:IAPP 10:1 [3] | Binder
54.2% | 14.3% | 0% | 14% | – | – | – | Ac-[dR]G[dE]M[dN]L[dS]W[dM][dN][dE][dY][dY]G[dW]T[dM]N[dM]K[dC]G[dR]-NH2 (SMILES CSCC[C@H](NC(=O)[C@@H](CCC(=O)O)NC(=O)CNC(=O)[C@@H](CCCNC(=N)N)NC(C)=O)C(=O)N[C@H](CC(N)=O)C(=O)N[C@@H](CC(C)C)C(=O)N[C@H](CO)C(=O)N[C@@H](Cc1c[nH]c2ccccc12)C(=O)N[C@H](CCSC)C(=O)N[C@H](CC(N)=O)C(=O)N[C@H](CCC(=O)O)C(=O)N[C@H](Cc1ccc(O)cc1)C(=O)N[C@H](Cc1ccc(O)cc1)C(=O)NCC(=O)N[C@H](Cc1c[nH]c2ccccc12)C(=O)N[C@H](C(=O)N[C@H](CCSC)C(=O)N[C@@H](CC(N)=O)C(=O)N[C@H](CCSC)C(=O)N[C@@H](CCCCN)C(=O)N[C@H](CS)C(=O)NCC(=O)N[C@H](CCCNC(=N)N)C(N)=O)[C@@H](C)O) [AP527m]
63.2% | 12.4% | 0% | – | – | – | – | Ac-[dR]G[dE]M[dN]L[dS]W[dM][dN][dE][dY][dS]G[dW]T[dM]N[dC]K[dM]G[dR]-NH2 (SMILES CSCC[C@H](NC(=O)[C@@H](CCC(=O)O)NC(=O)CNC(=O)[C@@H](CCCNC(=N)N)NC(C)=O)C(=O)N[C@H](CC(N)=O)C(=O)N[C@@H](CC(C)C)C(=O)N[C@H](CO)C(=O)N[C@@H](Cc1c[nH]c2ccccc12)C(=O)N[C@H](CCSC)C(=O)N[C@H](CC(N)=O)C(=O)N[C@H](CCC(=O)O)C(=O)N[C@H](Cc1ccc(O)cc1)C(=O)N[C@H](CO)C(=O)NCC(=O)N[C@H](Cc1c[nH]c2ccccc12)C(=O)N[C@H](C(=O)N[C@H](CCSC)C(=O)N[C@@H](CC(N)=O)C(=O)N[C@H](CS)C(=O)N[C@@H](CCCCN)C(=O)N[C@H](CCSC)C(=O)NCC(=O)N[C@H](CCCNC(=N)N)C(N)=O)[C@@H](C)O) [AP526m]
53.5% | 12.1% | 0% | – | – | – | – | Ac-RGE[dM]N[dL]S[dW]M[dN][dE][dY][dY]GW[dT]M[dN]M[dK]CGR-NH2 (SMILES CSCC[C@H](NC(=O)[C@@H](CC(N)=O)NC(=O)[C@H](CCSC)NC(=O)[C@H](NC(=O)[C@H](Cc1c[nH]c2ccccc12)NC(=O)CNC(=O)[C@@H](Cc1ccc(O)cc1)NC(=O)[C@@H](Cc1ccc(O)cc1)NC(=O)[C@@H](CCC(=O)O)NC(=O)[C@@H](CC(N)=O)NC(=O)[C@H](CCSC)NC(=O)[C@@H](Cc1c[nH]c2ccccc12)NC(=O)[C@H](CO)NC(=O)[C@@H](CC(C)C)NC(=O)[C@H](CC(N)=O)NC(=O)[C@@H](CCSC)NC(=O)[C@H](CCC(=O)O)NC(=O)CNC(=O)[C@H](CCCNC(=N)N)NC(C)=O)[C@H](C)O)C(=O)N[C@H](CCCCN)C(=O)N[C@@H](CS)C(=O)NCC(=O)N[C@@H](CCCNC(=N)N)C(N)=O) [AP525m]
69.7% | 0% | – | – | 40% | 42% | 65% | Ac-RGE[dM]N[dL]S[dW]MNEYSGW[dT]M[dN]L[dK]MGR-NH2 (SMILES CSCC[C@H](NC(=O)[C@@H](CCCCN)NC(=O)[C@H](CC(C)C)NC(=O)[C@@H](CC(N)=O)NC(=O)[C@H](CCSC)NC(=O)[C@H](NC(=O)[C@H](Cc1c[nH]c2ccccc12)NC(=O)CNC(=O)[C@H](CO)NC(=O)[C@H](Cc1ccc(O)cc1)NC(=O)[C@H](CCC(=O)O)NC(=O)[C@H](CC(N)=O)NC(=O)[C@H](CCSC)NC(=O)[C@@H](Cc1c[nH]c2ccccc12)NC(=O)[C@H](CO)NC(=O)[C@@H](CC(C)C)NC(=O)[C@H](CC(N)=O)NC(=O)[C@@H](CCSC)NC(=O)[C@H](CCC(=O)O)NC(=O)CNC(=O)[C@H](CCCNC(=N)N)NC(C)=O)[C@H](C)O)C(=O)NCC(=O)N[C@@H](CCCNC(=N)N)C(N)=O) [AP090]
100% | 96.2% | 86.4% | 96% | – | – | – | Ac-[dR]G[dE]M[dN]L[dS]W[dM][dN][dE][dY][dY]G[dW]T[dM]N[dM]K[dC]G[dR]-NH2 (also: homodimer: D-Cys21 disulfide-bonded to D-Cys21 of other copy) [AP527d]
